Measured values from PMC3480732.

B1: PGC-1α: S333A (protein)
parent chain: MAWDMCSQDSVWSDIECAALVGEDQPLCPDLPELDLSELDVNDLDTDSFLGGLKWCSDQSEIISNQYNNEPANIFEKIDEENEANLLAVLTETLDSLPVDEDGLPSFDALTDGAVTTDNEASPSSMPDGTPPPQEAEEPSLLKKLLLAPANTQLSYNECSGLSTQNHAANHTHRIRTNPAIVKTENSWSNKAKSICQQQKPQRRPCSELLKYLTTNDDPPHTKPTENRNSSRDKCASKKKSHTQPQSQHAQAKPTTLSLPLTPESPNDPKGSPFENKTIERTLSVELSGTAGLTPPTTPPHKANQDNPFKASPKLKPSCKTVVPPPTKRARYSECSGTQGSHSTKKGPEQSELYAQLSKSSGLSRGHEERKTKRPSLRLFGDHDYCQSLNSKTDILINISQELQDSRQLDFKDASCDWQGHICSSTDSGQCYLRETLEASKQVSPCSTRKQLQDQEIRAELNKHFGHPCQAVFDDKSDKTSELRDGDFSNEQFSKLPVFINSGLAMDGLFDDSEDESDKLSYPWDGTQPYSLFDVSPSCSSFNSPCRDSVSPPKSLFSQRPQRMRSRSRSFSRHRSCSRSPYSRSRSRSPGSRSSSRSCYYYESSHYRHRTHRNSPLYVRSRSRSPYSRRPRYDSYEAYEHERLKRDEYRKEHEKRESERAKQRERQKQKAIEERRVIYVGKIRPDTTRTELRDRFEVFGEIEECTVNLRDDGDSYGFITYRYTCDAFAALENGYTLRRSNETDFELYFCGRKQFFKSNYADLDTNSDDFDPASTKSKYDSLDFDSLLKEAQRSLRR
B2: PGC-1α: OGT overexpression (protein)
parent chain: B1 parent chain

Columns and labels:
[1] = Figure S3B, method not described in text; details: glycan lost; control: wild type
[2] = IP, anti-ubiquitin blot with MG132, HEK 293T; details: control: wild type
[3] = transcriptional activity assay; details: glycan lost; control: wild type

| Protein | other: phosphorylation [1] | other: ubiquitination ([2]; glycan lost) | other: transcriptional activity [3] | other: ubiquitination ([2]; glycan gained) |
| --- | --- | --- | --- | --- |
| B1 | no change | increases | no change | – |
| B2 | – | – | – | decreases |
